Results on 2 compounds are retold here after patent US20050058697A1, “Cell penetrating therapeutic agents” (priority 2001, published 2005).

Data set [1] can be described thus: Association of AntpHD-Cw3 with liposomes (size exclusion chromatography, micro BCA protein assay, [3H]CHE lipid count). In kind it is physicochemical. The note with it: for coupling efficiency: 10 mol % DOGS-NTA-Ni. As for the experimental part: Formulations were incubated with AntpHD-Cw3, free peptide was separated from the associated peptide using size exclusion chromatography, amount of peptide (□) and lipid (●) was then determined for each fraction as described herein.
DOPC/Chol liposomes containing 0% (O) and 10% (▪) DOGS-NTA-Ni were incubated with AntpHD-Cw3 at various peptide to liposome ratio for 30 min. at room temperature. The amount of peptide bound was determined after the incubation period as described herein. Data presented represent averaged results obtained from three liposome preparations ±S.E.M.
200 μg of dialyzed AntpHD-Cw3 was incubated with 10 μmoles liposomes as described for FIGS. 2-4 (v/v) for 30 min. at room temperature under rotary shaking. The mixture was then loaded on a Biogel™ A 1.5 m chromatography column in order to remove the free peptide from peptide that was incorporated into the liposome. The peptide/liposome ratio was determined by quantifying liposomal lipid using [^3H]CHE. Radioactivity was measured by liquid scintillation counting on a Can berra-Packard scintillation P counter (1900 TR Tri Carb™), using Pico-fluor 40™ scintillation cocktail. The peptide was quantified using the micro BCA™ protein assay kit, after dissolving the liposomes in 0.5% triton. BSA was used as the standard for this analysis.

`CCCCCCCC/C=C\CCCCCCCC(=O)OC[C@H](COC(=O)CCC(=O)NCCCCC(C(=O)O)N(CC(=O)[O-])CC(=O)[O-])OC(=O)CCCCCCC/C=C\CCCCCCCC.[Ni+2]` (stereo partly shown) [DOGS-NTA-Ni, 1,2-Dioleoyl-sn-glycero-3-{[n(5-amino-1-carboxypentyl)iminodiaceticacid]succinyl} (Nickel Salt)]: the “immune response to the lipid alone” value is given as “little in the way of a detectable immune response”.
As to “AntpHD-Cw3: Antennapedia homeodomain fused to Cw3 epitope (170-179), with 10-histidine tag and 13-amino acid linker (SEQ ID NO:1)”, the coupling efficiency in data set [1] (initial ratio 60 AntpHD-Cw3/μmole lipid) was found to be 80%; in data set [1] (initial ratio 80 AntpHD-Cw3/μmole lipid), 65%. Moreover, the “saturation of AntpHD-Cw3 binding” value in data set [1] (liposomes with 10 mol % DOGS-NTA-Ni, FIG. 3) is on record as “around 50 μg AntpHD-Cw3/μmole liposomal lipid”.
